For test [1], the target named is T1, L1CAM on L1CAM-overexpressing human cholangiocarcinoma cells (SCK-L1) (UniProt P32004 20-1257).
T1 construct: whole, on cells; also called L1 cell adhesion molecule
The test is described as follows: flow cytometry.

The target of test [2] is T2, GST-pre-S1 (1st to 56th amino acids) protein (hepatitis B virus, UniProt P08515 1-218 = GST). Description: BLI (Octet Red).
Test [3] has as its target T2, GST-pre-S1 (1st to 56th amino acids) …. The test is described as follows: affinity determination (competitive ELISA / Octet Red; FIGS. 2 to 5 cited).
Test [4] shares this target. The test is described as follows: BLI (Octet Red), antibody captured on anti-human Fc tip, GST-pre-S1 in solution.
Experimental: Thereafter, the biosensor tip was saturated with 2 μg/mL of the antibody for 10 minutes. […] The binding and separation rates were measured for 15 minutes and 30 minutes, respectively. In all the measurements, a baseline drift was corrected by subtracting a control sensor exposed to only a running buffer. The operating temperature was maintained at 30° C. The data was analyzed using a 1:1 interaction model (fitting global, Rmax unlinked by sensor) equipped with ForteBio data analysis software 7.0.

T2 sequence (P08515 whole entry): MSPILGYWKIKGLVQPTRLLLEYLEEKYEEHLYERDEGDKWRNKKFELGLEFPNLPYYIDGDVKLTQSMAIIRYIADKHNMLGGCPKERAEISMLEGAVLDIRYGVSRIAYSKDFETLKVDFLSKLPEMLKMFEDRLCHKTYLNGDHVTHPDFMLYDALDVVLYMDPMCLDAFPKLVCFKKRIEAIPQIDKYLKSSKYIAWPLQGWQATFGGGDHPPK
T1 sequence (P32004 20-1257 limits assumed): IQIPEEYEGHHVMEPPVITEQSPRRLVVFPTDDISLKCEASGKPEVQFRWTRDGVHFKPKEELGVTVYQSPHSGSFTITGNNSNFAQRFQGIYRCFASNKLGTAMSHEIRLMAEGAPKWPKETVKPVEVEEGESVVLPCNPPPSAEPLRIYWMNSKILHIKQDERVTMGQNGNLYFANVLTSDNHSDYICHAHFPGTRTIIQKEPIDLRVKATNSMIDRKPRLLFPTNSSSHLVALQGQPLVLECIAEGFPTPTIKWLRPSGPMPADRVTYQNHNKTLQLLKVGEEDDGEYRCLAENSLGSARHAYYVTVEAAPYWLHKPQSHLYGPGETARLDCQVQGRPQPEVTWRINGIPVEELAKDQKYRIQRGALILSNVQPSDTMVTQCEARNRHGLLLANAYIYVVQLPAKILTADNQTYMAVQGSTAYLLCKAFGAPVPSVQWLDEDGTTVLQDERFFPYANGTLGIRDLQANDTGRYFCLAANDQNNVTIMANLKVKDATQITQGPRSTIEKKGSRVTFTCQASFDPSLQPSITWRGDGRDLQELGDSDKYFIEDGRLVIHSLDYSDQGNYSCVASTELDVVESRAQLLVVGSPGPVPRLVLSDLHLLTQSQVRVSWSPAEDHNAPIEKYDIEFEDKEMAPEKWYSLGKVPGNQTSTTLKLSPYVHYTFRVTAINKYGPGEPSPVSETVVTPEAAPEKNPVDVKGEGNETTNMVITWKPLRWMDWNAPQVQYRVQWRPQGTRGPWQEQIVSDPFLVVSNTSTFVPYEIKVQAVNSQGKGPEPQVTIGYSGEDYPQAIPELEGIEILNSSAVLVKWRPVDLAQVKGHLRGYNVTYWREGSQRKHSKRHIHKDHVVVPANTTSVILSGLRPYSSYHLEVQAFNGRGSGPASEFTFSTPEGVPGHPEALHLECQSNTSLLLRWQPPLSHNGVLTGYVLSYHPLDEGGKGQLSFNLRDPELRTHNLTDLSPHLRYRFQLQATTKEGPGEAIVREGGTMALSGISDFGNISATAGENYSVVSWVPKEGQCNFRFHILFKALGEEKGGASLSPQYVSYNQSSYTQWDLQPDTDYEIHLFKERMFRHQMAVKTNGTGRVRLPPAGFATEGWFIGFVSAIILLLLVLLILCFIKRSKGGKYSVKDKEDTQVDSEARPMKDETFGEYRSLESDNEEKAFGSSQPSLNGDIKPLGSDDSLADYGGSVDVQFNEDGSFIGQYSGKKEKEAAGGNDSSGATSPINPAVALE

B1: humanized antibody HzKR127-3.2 (antibody, V domains shown)
VH: QVQLQQSGAEVKKPGASVKVSCKASGYTFTSSWMNWVRQAPGQGLEWMGRIYPGDGDTSYAQKFQGRVTMTADKSTSTVYMELSSLRSEDTAVYYCAREYAEAYWGQGTLVTVSS
VL: DIVMTQTPLSLSVTPGQPASISCKSSQSLLYSNGKTYLNWLLQKPGQPPQRLIYLVSNRDSGVPDRFSGSGSGTDFTLKISRVEAEDVGVYYCVQGTHFPQTFGGGTKVEIKR
Turning to B1, the binding result in test [1] is on record as “no binding (tested: 1 µg of the antibody in 100 µL)”. The “fold higher affinity than HzKR127-3.1” value in test [2] is 1.6 fold. The “fold higher affinity than KR127” value in test [3] was 2.5 fold. In test [4], the equilibrium dissociation constant (Kd) was 0.493 nM, the koff stood at 5.32e-05 s⁻¹ and the association rate constant (kon) came to 108000 M⁻¹ s⁻¹.

(Values after patent publication US20170260258A1 (GENEONE LIFE SCIENCE, published 2017).)
